Results reported in patent US11066455B2, “Tmem100 peptides and variants thereof and their use in treating or preventing diseases or conditions” (The Johns Hopkins University, priority 2014, dated 2021).
Residue numbers refer to the chain shown, from its start.

B1: Tmem100-3Q mutant (full-length, mouse) (protein)
chain: MTEESTKENLGAPKSPTPVTMEKNPKREVVVTTGPLVSEVQLMAATGGAELSCYRCIIPFAVVVFITGIVVTAVAYSFNSHGSIISIFGLVLLSSGLFLLASSALCWKVRQRNKKVQQQESQTALVVNQRCLFA
B2: Tmem100: 134-amino acid two-transmembrane protein, regulator of TRPA1 (SEQ ID NO: 1/2), expressed in cells (protein, listed as Homo sapiens, listed as Mus musculus)
chain 1: MTEEPIKEILGAPKAHMAATMEKSPKSEVVITTVPLVSEIQLMAATGGTELSCYRCIIPFAVVVFIAGIVVTAVAYSFNSHGSIISIFGLVVLSSGLFLLASSALCWKVRQRSKKAKRRESQTALVANQRSLFA
chain 2: B1 chain with Q117K, Q118R, Q119R

Tested on: TRPV1
Experiment: Cell-attached single-channel recording in CHO cells, CAP-induced activity (NPo)
Format: cell-based
Conditions: Vh=-60 mV
Description: Recordings were made in cell-attached single-channel or whole-cell voltage clamp configurations at 22-24° C. from the somata of small-to-medium mouse DRG neurons (15-35 pF) or CHO cells. For whole-cell configuration, holding potential (Vh) is −60 mV. Data were acquired and analyzed using an Axopatch 200B amplifier and pCLAMP9.0 software (Molecular Devices, Sunnyvale, Calif.). Borosilicate pipettes (Sutter, Novato, Calif.) were pulled and polished to resistances of 3-5 MΩ (in whole-cell and single-channel pipette solutions). Access resistance (Rs) was compensated (40-80%) when appropriate up to the value 7-10 MΩ for whole-cell configuration. Whole-cell recording data were filtered at 0.5 kHz and sampled at 2 kHz. Single-channels currents were filtered with an 8-pole, low pass Bessel filter at 0.1 kHz and sampled at 0.5 kHz, since dwelling time (τ) of the TRPA1 and TRPV1 single-currents were >0.5 sec. Whole-cell recorded data were rejected when Rs changed >20% during recording, leak currents were >100 pA, or input resistance was <200 MΩ.
Single-channel unitary current (i) was determined from the best-fit Gaussian distribution of amplitude histograms. Single-channel activity was analyzed as NPo=I/i, where I is the mean total current in a patch and i is unitary current at this voltage. For single channel slope conductances, linear fitting was used separately for positive and negative holding potentials. The slope conductances presented in figures were determined from fitting negative hold potentials (from −60 to 0 mV). The single-channel recording data were analyzed with Clampfit 9 software. This has an “event detection analysis” function that analyzes current traces and determines the number of channels in the patch (N), how many sub-conductances are present, and what the main conductance is. In order to increase the accuracy of the Po measurement, only patches containing fewer than 3 channels were used. For patches containing both TRPA1 and TRPV1, only those with equal numbers of TRPA1 and TRPV1 were used. This was monitored in each recording by applying MO and then CAP.
Standard external solution (SES) for whole-cell patch recording contained (in mM): 140 NaCl, 5 KCl, 2 CaCl2, 1 MgCl2, 10 D-glucose and 10 HEPES, pH 7.4. Vehicle, which is 0.01% DMSO, was added to external solutions. The bath solution for single-channel recording (SES-SCh) of TRP currents consisted of (in mM): 100 K-gluconate, 4 KCl, 1 MgCl2, 1 EGTA, 10 D-glucose and 10 Hepes (pH 7.3). The standard pipette solution (SIS) for the whole-cell configurations contained (in mM): 140 KCl, 1 MgCl2, 1 CaCl2, 10 EGTA, 10 D-glucose, 10 HEPES, pH 7.3. […] The baseline activities of the cells were recorded for 1-2 min prior drug applications. […]

[1] = co-expressed with TRPA1+TRPV1 (1:1:4) in CHO cells
[2] = co-expressed with TRPV1 only (1:4) in CHO cells

| Molecule | CAP (100 nM)-induced single-channel activity (NPo) [1] | CAP (100 nM)-induced single-channel activity (NPo) [2] |
| --- | --- | --- |
| B1 | 1.08±0.17 | 0.73±0.12 |
| B2 | 0.82±0.14 | 0.45±0.1 |
